This note sets out measurements from publication PMC5461033 (The Journal of Cell Biology, 2017).

For the experiment, the target named is T1, FLAG-Sec16 (1,101–1,600 aa) (human, UniProt O15027-4 1101-1600).
T1 sequence: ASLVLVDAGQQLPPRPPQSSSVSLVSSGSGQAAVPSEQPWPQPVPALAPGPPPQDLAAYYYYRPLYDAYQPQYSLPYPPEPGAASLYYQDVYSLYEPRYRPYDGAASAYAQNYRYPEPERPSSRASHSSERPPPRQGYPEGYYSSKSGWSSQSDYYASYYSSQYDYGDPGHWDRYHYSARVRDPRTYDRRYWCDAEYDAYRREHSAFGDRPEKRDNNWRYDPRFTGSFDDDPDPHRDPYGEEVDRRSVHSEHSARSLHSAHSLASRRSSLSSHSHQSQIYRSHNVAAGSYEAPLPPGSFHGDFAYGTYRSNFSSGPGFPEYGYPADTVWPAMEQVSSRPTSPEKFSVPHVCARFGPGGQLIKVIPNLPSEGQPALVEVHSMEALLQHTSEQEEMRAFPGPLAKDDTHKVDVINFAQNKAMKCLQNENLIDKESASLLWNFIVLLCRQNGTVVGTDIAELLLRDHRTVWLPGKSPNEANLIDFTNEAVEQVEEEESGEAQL
The experiment can be described thus: pull-down.

B1: GST-tagged TANGO1-PRDΔ60 (1,651–1,847 aa) (domain or fragment)
chain: NTQNPPRRGPLSQNGSFGPSPVSGGECSPPLTVEPPVRPLSATLNRRDMPRSEFGSVDGPLPHPRWSAEASGKPSPSDPGSGTATMMNSSSRGSSPTRVLDEGKVNMAPKGPPPFPGVPLMSTPMGGPVPPPIRYGPPPQLCGPFGPRPLPPPFGPGMRPPLGLREFAPGVPPGRRDLPLHPRGFLPGHAPFRPLGS
Take B1: the binding result is “binds”.

B2: GST-tagged TANGO1-PRD (1,651–1,907 aa) (domain or fragment)
chain: NTQNPPRRGPLSQNGSFGPSPVSGGECSPPLTVEPPVRPLSATLNRRDMPRSEFGSVDGPLPHPRWSAEASGKPSPSDPGSGTATMMNSSSRGSSPTRVLDEGKVNMAPKGPPPFPGVPLMSTPMGGPVPPPIRYGPPPQLCGPFGPRPLPPPFGPGMRPPLGLREFAPGVPPGRRDLPLHPRGFLPGHAPFRPLGSLGPREYFIPGTRLPPPTHGPQEYPPPPAVRDLLPSGSRDEPPPASQSTSQDCSQALKQSP
B2: the binding result is “binds”.
